Measurements: patent US20240174727A1, “LONG-ACTING NATRIURETIC PEPTIDES AND USES THEREOF” (Eli Lilly and Company, priority 2022, published 2024)
Numbered stars: 1 amine (or outer) side, 2 acyl side, 3 side chain; on linkers, the order of the positions; unused ones are H or OH. Bridge positions count the residues as written; N and C are the ends. Square brackets hold non-standard residues; d marks the D form. Primed or numbered codes have the meaning given here. Ends that are not written are not given here. * marks the point of attachment. thioacetal = thioacetal linkage between two cysteines (intrachain bond at the bracketed Cys); C20 diacid = O=C(O)CCCCCCCCCCCCCCCCCCC(=O)*; γGlu = O=C(O)[C@H](CCC(=O)[*:2])N[*:1]; 4Pal = N[C@@H](Cc1ccncc1)C(=O)O; thioacetal″ = not defined here; βAla = NCCC(=O)O

Assays:
rat NPRA = target: T1, rat NPRA (rat, UniProt P18910 29-1057); experiment: cell-based or functional assay
T1 sequence (looked up): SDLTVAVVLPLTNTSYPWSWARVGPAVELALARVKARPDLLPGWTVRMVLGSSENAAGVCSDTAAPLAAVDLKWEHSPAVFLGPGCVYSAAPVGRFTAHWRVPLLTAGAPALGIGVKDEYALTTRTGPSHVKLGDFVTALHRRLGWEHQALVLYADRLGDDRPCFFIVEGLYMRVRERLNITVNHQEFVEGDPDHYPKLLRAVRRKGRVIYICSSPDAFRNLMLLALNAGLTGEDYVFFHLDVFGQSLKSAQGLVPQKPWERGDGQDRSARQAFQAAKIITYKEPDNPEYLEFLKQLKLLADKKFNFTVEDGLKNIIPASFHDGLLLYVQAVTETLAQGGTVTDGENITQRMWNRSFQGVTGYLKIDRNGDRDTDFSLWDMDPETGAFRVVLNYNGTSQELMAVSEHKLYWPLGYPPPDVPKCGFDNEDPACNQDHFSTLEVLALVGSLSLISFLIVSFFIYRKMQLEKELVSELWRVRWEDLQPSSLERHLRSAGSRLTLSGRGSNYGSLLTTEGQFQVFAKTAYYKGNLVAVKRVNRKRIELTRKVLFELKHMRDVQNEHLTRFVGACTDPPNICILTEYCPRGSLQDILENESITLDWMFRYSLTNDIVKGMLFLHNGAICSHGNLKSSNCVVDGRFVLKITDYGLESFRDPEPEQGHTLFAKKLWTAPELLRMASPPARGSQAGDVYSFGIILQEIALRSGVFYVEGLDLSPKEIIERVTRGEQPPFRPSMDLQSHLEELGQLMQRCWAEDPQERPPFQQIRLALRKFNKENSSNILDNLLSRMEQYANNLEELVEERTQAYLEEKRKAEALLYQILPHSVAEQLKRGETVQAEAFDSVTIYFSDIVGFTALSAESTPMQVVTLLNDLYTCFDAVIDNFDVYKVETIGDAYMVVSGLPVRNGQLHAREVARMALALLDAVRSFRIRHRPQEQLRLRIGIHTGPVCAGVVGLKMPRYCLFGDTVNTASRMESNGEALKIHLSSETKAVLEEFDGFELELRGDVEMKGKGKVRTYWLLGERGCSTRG

human NPRA = target: T2, human NPRA (human, UniProt P16066 33-1061); experiment: cell-based or functional assay
T2 sequence (looked up): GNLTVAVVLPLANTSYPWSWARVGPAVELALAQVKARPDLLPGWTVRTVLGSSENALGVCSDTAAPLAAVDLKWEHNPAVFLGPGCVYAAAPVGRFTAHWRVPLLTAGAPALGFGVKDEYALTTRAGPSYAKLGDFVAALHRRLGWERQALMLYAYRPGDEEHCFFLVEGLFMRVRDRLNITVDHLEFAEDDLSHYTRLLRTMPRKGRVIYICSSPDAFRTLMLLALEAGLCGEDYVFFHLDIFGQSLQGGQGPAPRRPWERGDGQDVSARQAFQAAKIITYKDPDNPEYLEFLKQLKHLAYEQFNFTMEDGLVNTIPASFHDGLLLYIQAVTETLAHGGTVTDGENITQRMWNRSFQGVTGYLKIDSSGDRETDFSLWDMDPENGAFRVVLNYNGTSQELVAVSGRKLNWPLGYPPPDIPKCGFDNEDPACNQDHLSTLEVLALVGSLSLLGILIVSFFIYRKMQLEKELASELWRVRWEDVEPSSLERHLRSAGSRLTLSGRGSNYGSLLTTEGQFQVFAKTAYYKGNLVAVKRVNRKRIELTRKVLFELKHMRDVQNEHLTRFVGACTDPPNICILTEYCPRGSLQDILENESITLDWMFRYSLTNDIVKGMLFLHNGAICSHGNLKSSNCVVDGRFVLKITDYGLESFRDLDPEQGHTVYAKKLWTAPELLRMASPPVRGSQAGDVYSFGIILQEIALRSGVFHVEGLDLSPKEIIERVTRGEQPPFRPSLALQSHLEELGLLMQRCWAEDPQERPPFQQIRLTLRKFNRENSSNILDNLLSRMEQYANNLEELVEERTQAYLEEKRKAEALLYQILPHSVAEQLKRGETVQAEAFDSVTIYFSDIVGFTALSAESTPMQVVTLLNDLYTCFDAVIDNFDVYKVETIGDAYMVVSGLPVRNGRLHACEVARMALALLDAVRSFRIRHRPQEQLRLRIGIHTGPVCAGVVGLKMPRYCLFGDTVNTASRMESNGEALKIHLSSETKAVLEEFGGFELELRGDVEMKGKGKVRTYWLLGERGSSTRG

| Binder | cGMP Assay (EC50, pM) w/BSA (rat NPRA) [pM] | cGMP Assay (EC50, pM) w/Casein (rat NPRA) [pM] | cGMP Assay (EC50, pM) w/BSA (human NPRA) [pM] | cGMP Assay (EC50, pM) w/Casein (human NPRA) [pM] |
| --- | --- | --- | --- | --- |
| SXRRSSCFGGRIDRIGHQSGLGCPSFRHGGKSSGAPPPS (HOOC-(CH2)18-CO-(γGlu)-EKEKEKG-PEG24-S-4Pal-RRSS[CFGGRIDRIGHQSGLGC]PSFRHGGKSSGAPPPS-NH2; thioacetal linkage between the bracketed Cys) [Example 75] | 533000 | 23800 | 17000 | 1060 |
| {C20 diacid}-[γGlu]EKEKEKGEK[βAla]RSSCFGGRIDRIGHYSGLGCPSFRHGGKSSGAPPPS-NH2 (bridge 15-31 via thioacetal) [Example 76] | 607000 | 8280 | 79900 | 2620 |
| {C20 diacid}-[γGlu]EKEKEKGS[4Pal]RRSSCFGKRIDRIGHQSGLGCPSFRHGGKSSGAPPPS-NH2 (bridge 15-31 via thioacetal) [Example 79] | 261000 | 3440 | 4580 | 273 |
| {C20 diacid}-[γGlu]EKEKEKGS[4Pal]RRSSCFGRKIDRIGHQSGLGCPSFRHGGKSSGAPPPS-NH2 (bridge 15-31 via thioacetal) [Example 80] | 364000 | 3550 | 4750 | 234 |
| {C20 diacid}-[γGlu]EKEKEKGS[4Pal]RRSSCFGKRIDRIGHYSGLGCPSFRHGGKSSGAPPPS-NH2 (bridge 15-31 via thioacetal″; reading uncertain) [Example 81] | 127000 | 1910 | 5710 | 388 |
| SXRRSSCFGGRIDRIGHQSGLGCPSFRHGGKSSGAPPPS (HOOC-(CH2)18-CO-(γGlu)-EKEKEKG-PEG12-S-4Pal-RRSS[CFGGRIDRIGHQSGLGC]PSFRHGGKSSGAPPPS-NH2; thioacetal linkage between the bracketed Cys) [Example 82] | 836000 | 25400 | 32600 | 623 |
| SXRRSSCFGGRIDRIGHQSGLGCPSFRHGGKSSGAPPPS (HOOC-(CH2)18-CO-(γGlu)-EKEKEKG-(AEEA)4-S-4Pal-RRSS[CFGGRIDRIGHQSGLGC]PSFRHGGKSSGAPPPS-NH2; thioacetal linkage between the bracketed Cys) [Example 83] | 860000 | 16700 | 38400 | 1040 |
| SXRRSSCFGGRIDRIGHQSGLGCPSFRHGGPPSXKPPPK (HOOC-(CH2)18-CO-(γGlu)-EKEKEKG-PEG24-S-4Pal-RRSS[CFGGRIDRIGHQSGLGC]PSFRHGGPPS-Aib-KPPPK-NH2; thioacetal linkage between the bracketed Cys) [Example 84] | 547000 | 24600 | 9730 | 1010 |
| SXRRSSCFGGRIDRIGHQSGLGCPSFRHGGKSSGAPPPS (HOOC-(CH2)18-CO-(γGlu)-EKEKEKG-(AEEA)6-S-4Pal-RRSS[CFGGRIDRIGHQSGLGC]PSFRHGGKSSGAPPPS-NH2; thioacetal linkage between the bracketed Cys) [Example 86] | 868000 | 17900 | 25200 | 1020 |
| SXRRSSCFGKRIDRIGHQSGLGCPSFRHGGKSSGAPPPS (HOOC-(CH2)18-CO-(γGlu)-EKEKEKG-(AEEA)8-S-4Pal-RRSS[CFGKRIDRIGHQSGLGC]PSFRHGGKSSGAPPPS-NH2; thioacetal linkage between the bracketed Cys) [Example 87] | 463000 | 8870 | 3380 | 621 |
| EKXRSSCFGKRIDRIGHQSGLGCPSFRHGGKSSGAPPPS (HOOC-(CH2)18-CO-(γGlu)-EKEKEKG-(AEEA)4-EK-βAla-RSS[CFGKRIDRIGHQSGLGC]PSFRHGGKSSGAPPPS-NH2; thioacetal linkage between the bracketed Cys) [Example 88] | 1.05e+06 | 11400 | 16300 | 520 |
| EKXRSSCFGKRIDRIGHQSGLGCPSFRHGGKSSGAPPPS (HOOC-(CH2)18-CO-(γGlu)-EKEKEKG-(AEEA)6-EK-βAla-RSS[CFGKRIDRIGHQSGLGC]PSFRHGGKSSGAPPPS-NH2; thioacetal linkage between the bracketed Cys) [Example 89] | 819000 | 13800 | 10800 | 806 |
| EK[βAla]RSSCFGKRIDRIGHQSGLGCPSFRHGGKSSGAPPPS-NH2 (bridge 7-23 via thioacetal; not fully specified (N-terminus)) [Example 90] | 734000 | 13200 | 19700 | 452 |
| SXRRSSCFGGRIDRIGHYSGLGCPSFRHGGKSSGAPPPS (HOOC-(CH2)18-CO-(γGlu)-EKEKEKG-(AEEA)8-S-4Pal-RRSS[CFGGRIDRIGHYSGLGC]PSFRHGGKSSGAPPPS-NH2; thioacetal linkage between the bracketed Cys) [Example 91] | 549000 | 16200 | 13900 | 1000 |
| SXRRSSCFGGRIDRIGHYSGLGCPSFRHGGKSSGAPPPS (HOOC-(CH2)18-CO-(γGlu)-EKEKEKG-(AEEA)6-S-4Pal-RRSS[CFGGRIDRIGHYSGLGC]PSFRHGGKSSGAPPPS-NH2; thioacetal linkage between the bracketed Cys) [Example 92] | 290000 | 12400 | 10100 | 772 |
| EKXRSSCFGGKIDRIGHYSGLGCPSFRHGSPSSGAPPPS (HOOC-(CH2)18-CO-(γGlu)-EKEKEKG-PEG24-EK-βAla-RSS[CFGGKIDRIGHYSGLGC]PSFRHGSPSSGAPPPS-NH2; thioacetal linkage between the bracketed Cys) [Example 6] | 596000 | 30500 | 33300 | 1530 |
| SXRRSSCFGGRIDRIGHYSGLGCPSFRHGGKSSGAPPPS (HOOC-(CH2)18-CO-(γGlu)-EKEKEKG-PEG24-S-4Pal-RRSS[CFGGRIDRIGHYSGLGC]PSFRHGGKSSGAPPPS-NH2; thioacetal linkage between the bracketed Cys) [Example 95] | 322000 | 12300 | 7030 | 771 |
| SXRRSSCFGGRIDRIGHYSGLGCPSFRHGSPSSGAPPPS (HOOC-(CH2)18-CO-(γGlu)-EKEKEKG-(AEEA)6-S-4Pal-RRSS[CFGGRIDRIGHYSGLGC]PSFRHGSPSSGAPPPS-NH2; thioacetal linkage between the bracketed Cys) [Example 96] | 401000 | 12200 | 12700 | 720 |
| EKXRSSCFGGRIDRIGHYSGLGCPSFRHGSPSSGAPPPS (HOOC-(CH2)18-CO-(γGlu)-EKEKEKG-(AEEA)6-EK-βAla-RSS[CFGGRIDRIGHYSGLGC]PSFRHGSPSSGAPPPS-NH2; thioacetal linkage between the bracketed Cys) [Example 98] |  | 17900 |  | 1840 |
| EKXRSSCFGGKIDRIGHQSGLGCPSFRHGSPSSGAPPPS (HOOC-(CH2)18-CO-(γGlu)-EKEKEKG-PEG24-EK-βAla-RSS[CFGGKIDRIGHQSGLGC]PSFRHGSPSSGAPPPS-NH2; thioacetal linkage between the bracketed Cys) [Example 7] | 1.17e+06 | 184000 | 69600 | 5670 |
